Assay results reported in the nanobody polyreactivity screen of Harvey et al. (2022).

Assay: yeast display, Sf9 membrane polyspecificity reagent, FACS + sequencing; frameworks hold sequencing errors
In short: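 Nanobodies came from a synthetic yeast display library in Saccharomyces cerevisiae BJ5465, induced with galactose for 36–48 hours and stained for 1 hour at 4 °C with 10% biotinylated, detergent-solubilized Sf9 membrane reagent. Cells were enriched on streptavidin microbeads and then FACS-sorted, with low and high (top ~1%) gates set on anti-HA fluorescence for expression and streptavidin fluorescence for reagent binding. Each polyreactivity label reflects the gate a clone came from. Genes were amplified by colony PCR, sequenced by MiSeq 2 × 250 and filtered by CDR length.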

QVQLVESGGGLVQAGGSLRLSCAASGRTLYLYAMGWYRQAPGKERELVAAIDWRGTSTYYADSVKGRFTISRDNAKNTVYLQMNSLKPEDTAVYYCNAEGRWSSFTQRMDYWGQGTQVTVSS
polyreactivity (PSR sort gate): low polyreactivity

QVQLVESGGGLVQAGGSLRLSCAASGRILFWYAMGWYRQAPGKERELVAAISSSGGSTYYADSVKGRFTISRDNAKNTFYLLMNSLKPEDTAVYYCAADGVVDYGYWFVVEYEYWGQGTQVTVSS
polyreactivity (PSR sort gate): high polyreactivity

QVQLVESGGGLVQAGGSLRLSCAASGRTFWVNAMGSYRQAPGKERELVATIRGSGVSTYYADSVKGRFTISRDNAKNTVYLQMNSLKPEDTAVYYCAAGFAGGYGVTFDYCGQGTQVTVSS
polyreactivity (PSR sort gate): low polyreactivity

QVQHVESGGGLVQAGGSLRLSCAASGRIFPAYAMGWYRQATGKERELVATISSTGSRSYYADSVKGRFTISRDNAKNTVYLQMNSLKPEDTAVYYCAARQRYKVGGLYGVDYWGQGTQVTVSS
polyreactivity (PSR sort gate): high polyreactivity

QVQLVESGGGLVQAGGSLRLSCAASGRTLPSNTMGWYRQAPGTERELVAAISKNGGSTYYADSVKGRFTISRDNAMNTVYLQMNSLKPEDTAVYYCNARYLYGRYRSPLDDYWGQGTQVTVSS
polyreactivity (PSR sort gate): high polyreactivity

QVQLQETGGGLFQAGVSLRLSCATSGSIFWGNAMGWYRQSPGKDRELVAAISWGGGRTYYADSVKGRFTISRDNAKITVYLQINSLKPEDTAVYSCNTRYPYVVSTGYDYWGQGTQVTVSS
polyreactivity (PSR sort gate): high polyreactivity

QVQLVESGGGLVQAGGSLRLSCAASGSIFYSYAMGWYRQAPGKERELVAAINWSGGSTYYADSVKGRFTISRDNAKNTVYLQMKSLKPEDTAVYYCAADYGWGPIYDYWGQGTQVTVSS
polyreactivity (PSR sort gate): low polyreactivity

QVQLVESGGGLVQAGGSLRLSCAASGYTFYRYAMGWYRQAPGKERELVATISRGGSTDYADSVKGRFTISRDNAKNTVYLQMNSLKPEDTAVYYCAARAFSRLTTFYYWGQGTQVTVSS
polyreactivity (PSR sort gate): high polyreactivity

QVQLVESGGGLVQAGGRLRLSCAASGLIFVWYAMGWYRQAPGKERELVAAISTSGGSTYYADSVKGRFTISRDNAKNTVYLQMNSLKPEDTAVYYCAAARRWWPQGYYWGQGTQVTVSS
polyreactivity (PSR sort gate): high polyreactivity

QVQLVESGGGLVQAGGSLRLSCAASGSIFDFYAMGWYRQAAGKERELVASITGRGGSTYYADSVKGRFSISRDKAKNTVYFQMNSLKPEDTAVYYCAAATFGRGGFEYWGQGTKVTVSS
polyreactivity (PSR sort gate): high polyreactivity

QVQLVESVGGLVQAGGSLRLSCAASGRIFAPYAMGWYRQAPGKERELVAAIRWRGGSTSYADSVKGRFTISRDNAKNTVYLQMNSLKPEDTAVYYCNADYGFSFYWYDYWGQGTQVTVSS
polyreactivity (PSR sort gate): low polyreactivity

QVQLVESGGGLVQAGGSLRLSCAASGITFQKYVMGWYRQAPGKEREFVAAITARGGTTYYADSVKGRFTISRDNAKNTVYLQMNSLKPEDTAVYYCAARSYYSGLAYYYWGQGTQVTVSS
polyreactivity (PSR sort gate): high polyreactivity

QVQLEESGGGLVQAGGSLRLSCAASGRIFPRNAMGWYRQATGKERELVASITSGGSTNYADSVKGRFTISRDNAKNTVYLQMHSLKPEDTAVYYCAADRTGYQLETTEYDYWGQGTQVTVSS
polyreactivity (PSR sort gate): high polyreactivity

QVQLVESGGGLVQAGGSIRLSCAASGSTFCVNAMGWDRQAPGKERELVAVITFTGSRTYYADSVKGRFTISRDNAKNTVYLQMNSLKPEDTAVYYCAADRRRVLYKFDYWGQGTQVTVSS
polyreactivity (PSR sort gate): low polyreactivity

QVQLVESGGGLVQAGGSLRLSCAASGRILYIYAMGWYRQAPGKERELVASISWTDGSTYYADSVKGRFTISRDNAKNTVYLQMNSLKPEDTAVYYCNAAYYYYWDLKKYNYWGQGTQVTVSS
polyreactivity (PSR sort gate): low polyreactivity

QVQLVESGGGLVQAGGSLRLSCAASGFIFSKNAMGWYRQAPGKERELVARITRRVGSTYYADSVKGRFTISRDNAKITVYLQMNSLKPEDTAVYYWAAVVHIQRSTRDYWGQGTQVTVSS
polyreactivity (PSR sort gate): high polyreactivity

QVQLVESGGGLVQAGGSLRLSCAASGNIFKVNTMGWYRQAPGKERELVAAINRSGGRPYYADSVKGSFTISRDNAKNTVYLQMNSLKPEDTAVYYCATRVHKSTHGYDYWGQGTQVTVSS
polyreactivity (PSR sort gate): high polyreactivity

QVQLVESGGGLVQAGGSLRLSCAASGGIFYHNAMGWYRQAPGKERELVAAISGRGGRTYYADSVKGRFTISRDNAKNTVYLQMNSLKPEDTAVYYCDADQYKDFDYWGQGTQVTVSS
polyreactivity (PSR sort gate): low polyreactivity

QVQLVESGGGLVQAGGSLRLSCAASGNIFYVYAMGWYRQAPGKERELVAVISRNDGSTYYADSVKARFTISRDNAKNTVYLQMNSLKPEDTAVYYCNAEWYFWGQGTQVTVSS
polyreactivity (PSR sort gate): low polyreactivity

QVQLVESGGGLVQAGGILRLSCAASGRIFLYYTMGWYRQAPGKEREFVAAITRSGSSTYYADSVKGRFTISRDNAKNTVYLQMNSLKREDTAVYYCNRVFTWRYGYRYEYWGQGTHVTVSS
polyreactivity (PSR sort gate): high polyreactivity

QVQLVESGGGLVQAGGSLRLSCAASGFTFRQYAMGWYRQAPGKEREFFADITFSGDNTRYADSVKGRFTISRDNAKNTVYLQMNSLKPEDTGVYYCNADYLVSWLQFDYWGQGTQVTVSS
polyreactivity (PSR sort gate): low polyreactivity

QVQLVESCGVLVQAGGSLRLSCDASGSIFVWNAMGWYREAPGKERELVAAIRSDDDSTYYADSVKGLFTISRDNAKNTVYLQMNCLNPEDTAVINALVDSPTFSHVKPWDGGDYWGQGTQVTVSS
polyreactivity (PSR sort gate): low polyreactivity

QVQLVESGGGFVQAGGSLRLSCAASGLIFGRYGLGWYRQAPGKAREFVAAITQSGGATYYADSVKGRFTISRDNAKNTVYLQMNSLKPEDTAVYYCNAPIAYWRVHDKYGYWGQGTQLTVSS
polyreactivity (PSR sort gate): low polyreactivity

QVQLVESGGGLVQAGGRLRISCAASGAIFGEYPMGWYSQAPGKERELVADITTGGNTNYADSVKGRFTITRDNAKNTVYVHMNSLKPEDTAVYYCIAYGNTYGYWWFGYWGQGTQVNVSS
polyreactivity (PSR sort gate): low polyreactivity

QVQLVESGGGLVQAGGSLRLSCAASGLTFYVYTMGWYRQEPGKERELVAAITGSGGSTFYADSVKGRFTISRDNAKNTVFIQMNSLKREDTAVYYCAAYYYMSDGYDYWGQGTQVTVSS
polyreactivity (PSR sort gate): low polyreactivity

QVQLVESGGGLVQAGGRLRLSCAASGRTIGVYAMGWYRQAPGKERELVAAISWSGGTTYYADSVKGRFTISRDNAKNTVYLQMNSLKPEDTGVYYCAADGEYPHSEDFEYWGQGTQVTVSS
polyreactivity (PSR sort gate): low polyreactivity

QVQLVESGGGLVQEGGSLSLSCAASGITFRSYTMGWYRQAPGKERELLAGITRRGGSTFYADSVKGRFTISRDNATNTVYLQMNSLNPEDTAVYFCAVGFYYLSSWYSYDYRGQGTQVTVSS
polyreactivity (PSR sort gate): high polyreactivity

QVQLVESGGGLVQAGGSLRLSCAASGRTFRWYAMGWYRQAPGKERELVAAITSDGSTYYADSVKGRFTISRDNAKNTVYLQMNSLKPEDTAVYYCNAAGRYAFPFGYNYWGQGTQVTVSS
polyreactivity (PSR sort gate): high polyreactivity

QVQLVESGGGLVQAGGSLRLSCAASGSIFRIYAMGWYRQAPGKERELVAAISFSTGSRTYYADSVKGRFTISRDNAKNTVYLQMNSLKPEDTAVYYCAAEYHPRVLYPNWYDYWGQGTQVTVSS
polyreactivity (PSR sort gate): low polyreactivity

QVQLVESGGGLVQAGGSLRLSCAASGLTFRIYAMGWYRQAPGKERELVAAISWNGGSTYYADSVKGRFTISRDNAMNTVYLQMNSLKPEDTAVYYFNADPSDRRYPHTWTKMGYWGQGTQVTVSS
polyreactivity (PSR sort gate): low polyreactivity

QVQLVESGGGLVQAGGSLRLSCAASGSIFTVYAMGWYRQAPGKERELVASISKSGGSTYYADSVKGRFTISRDNAKNTVYLQMNSLKPEDTAVYYCAAESGRTYSHRHYDSWGQGTQVTVSS
polyreactivity (PSR sort gate): low polyreactivity

QVQLVESGGGLVQAGGSLRLSCAASGSTFRRYAMGWYRQAPVKERELVAAITRGGITYYADSVKGRFTISRDNAKNTVYLQMNSLKPEDTAVYYCAATTFGPYALYPRYYYWGQGTQVTVSS
polyreactivity (PSR sort gate): high polyreactivity

QVQLVESGGGLVQAGGSLRLSCAASGSTFIDYAMGWYRQAPGKERELVASITWSGGSTYYADSVKGRFTISRDNAKNTVYLQMNSLKPEDTAVYYCNADVNVGLEVRIVYEYDYWGQGTQVTVSS
polyreactivity (PSR sort gate): low polyreactivity

QVQLVESGGGLVQAGGSLRLSCAASGFIFRYYAMGWYRQAPGKERELVAAISRIGGSSYYADSVKGRFTISRDNAKNTVYLQMNSPKPEVTAVYYCAVAEGYYPAYLRDYWGQGTQVTVSS
polyreactivity (PSR sort gate): high polyreactivity

QVQLVESGGGLVQAGGSLRLSCAPSGSTFPQYAMGWYRQAPGKERELVADISSGVSTNYADSVKGRFTISRDNAKNTVYLLMNSLKPEDTAVYYCAAQAYVEGVYRYDYWGQGTQVTVSS
polyreactivity (PSR sort gate): low polyreactivity

QVQLVESGGGLVQAGGSLRLSCAASGYIFVRNAMGWSRQAPGKERELVAAISRTDGTTYYADSVKGRFTISRDNAKNTVYLQMNSLIPEDTAVYYCAADYLRAPYYQYEYWGQGTQVTVSS
polyreactivity (PSR sort gate): low polyreactivity

QVQLVESGGGLVQAGGSLRLSCAASGRTFHSYAMGWYRQAPGKERELVAAINNGGGTYYADSVKGRFTISRDNAKNTVYLQMNSLKPEDTAVYYCAADRYRYRYNAPRYAYDYWGQGTQVTVSS
polyreactivity (PSR sort gate): high polyreactivity

QVQLVASGGGLVQAGGSLRLSCAASGRTFYEYSIGWYRQAPGKERELDAGITSGGSTNYSDTVKGRFTISRDNATNPVFLLMNRLNPEDTAVYYCAAAYWGYEYDYWGQGTQVTLSS
polyreactivity (PSR sort gate): low polyreactivity

QVQLVESGGGLVQAGRSLRLTCAASGRTFLANAMGWYRQAPGKEREFVAAIDWRTGSTYYADSVKGRFTISRDNAKNSVYLQRNSLNPEDTAVYYCAKDSSSYYYAHFYYWGQGTQVTVSS
polyreactivity (PSR sort gate): high polyreactivity

QVQLVESGGGLVQAGGSLRLSCAASGIIFSWYAMGWYRQAPGKERELVASITASGGSTYYADSVKGRFTISRDNAKNTVYLQMNSLKPEDTAVYYCAVRYGHRSFASVYVEYEYWGQGTQVTVSS
polyreactivity (PSR sort gate): low polyreactivity

QVQLVESGGGLVQAGGSLRLICSASGSIIEHYAMGWYRQAPGKERELVAAISWCGASTYYADSVKGRFTISRDNAKNTVYLQWYSLKPEDTAVYYCAAVFYGGGKRYYYWGQGTQVTVSS
polyreactivity (PSR sort gate): high polyreactivity

QVQLVESGGGLVQAGGSLRISCASSGSIFYLNAMGWYRQAPGKERELVAAISRRGGTTSYADSVKGRFTISRDNAKNTVFLQMNSLKPEDTAVYYCAKRTKPSKNYYYWGQGTQVTVSS
polyreactivity (PSR sort gate): high polyreactivity

QVQLVESGGGLVQAGGSLRLSCADSGIIFAYYAMGWYRQAPGKERELVAAITGGGVRTYYADSVKGRFTISRDNAKNTVYLQMNSLKPEDTAVYDCIATGSTASGRVNYWGQGTQVTVSS
polyreactivity (PSR sort gate): high polyreactivity
